The values below come from paper PMC7319273 (Science (New York, N.y.), 2020).

In assay [1] the target is T1, SARS-CoV-2 Spike protein extracellular domain (S-ECD), as used in ELISA and BLI (SARS-CoV-2, Wuhan-Hu-1 (P0DTC2)). The experiment in a line: BLI. Particulars: both partners purified.
Assay [2] addresses T1, SARS-CoV-2 Spike protein extracellular …. The experiment in a line: cell-based or functional assay.

B1: 0304-3H3 (human monoclonal antibody) (antibody, V domains shown)
VH: EVQLVESGPGLVKPSETLSLTCTASGGSISTYYWSWIRQPPGKGLEWIGYIYYSGSTNYNPSLKSRVTISVDTSKNQFSLKLSSVTAADTAVYYCARDRIAPVGKFFGWYFDLWGRGTLVTVSS
VL: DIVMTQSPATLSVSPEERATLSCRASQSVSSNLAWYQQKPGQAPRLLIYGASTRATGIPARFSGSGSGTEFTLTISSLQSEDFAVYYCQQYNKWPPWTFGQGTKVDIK
notes: also called mAb 0304-3H3
In general, Kd refers to the free concentration of one partner at which half of the binding sites on the other are occupied at equilibrium, for simple one-to-one binding. Consider B1, for which the Kd in assay [1] is below 2.14 nM. For the same molecule, the “neutralization of authentic SARS-CoV-2 in Vero-E6 cells, EC50” value in assay [2] turned out to be 0.04 µg/mL.

B2: 9A1 (human monoclonal antibody) (antibody, V domains shown)
VH: EVQLLESGGGVVQPGRSLRLSCVVSGFTFNNYGMHWVRQAPGKGLEWVAVISYEGSVKYYGDHVDGRFTISRDPFKNTLYLHMNNLRPDDTAVYYCAKVSAIFWLGQGLSPIDVWGQGTTVTVSS
VL: DIVMTQSPATLSASPGERVTLSCRASQNIRNNLAWYQQKPGQAPRLLIHGASTRAAGAPARFSGSGSDTQFTLTVSSLQSEDFAVYYCHQYSKWPVTFGGGTKVDIK
notes: also called mAb 9A1
Turning to B2, the Kd in assay [1] was below 2.14 nM.

B3: 1M-1D2 (human monoclonal antibody) (antibody, V domains shown)
VH: QVQLVESGGGLVQPGGSLRLSCAASGFTFSSYAMHWVRQAPGKGLEYVSAISGNGGSTYYAKSVKGRFTISRDNSKNTLYLQMGSLRAEDMAVYYCARGAEYYDFWSGYYSAYFDYWGQGTLVTVSS
VL: QAVVTQPPSASGTPGQRVTISCSGSSSNIGSNYVYWYQQLPGTAPKLLIYNNNQRPSGVPDRFSGSKSGTSASLAISGLRSEDEADYYCAAWDDSLIYVLFGGGTKLTVL
In turn, B3 showed a Kd in assay [1] below 2.14 nM. In addition, the “neutralization of authentic SARS-CoV-2 in Vero-E6 cells, EC50” value in assay [2] amounted to 28 µg/mL.

B4: 2M-10B11 (human monoclonal antibody) (antibody, V domains shown)
VH: EVQLVESGGGLVQPGGSLRLSCAASGFTVSSNYMSWVRQAPGKGLEWVSVIYSGGSTYYADSVKGRFTISRDNSKNTLYLQMNSLRAEDTAVYYCARATWLRGVMDVWGQGTTVTVSS
VL: QSALTQPHSVSESPGKTVTISCTGSSGSIASNYVQWYQQRPGSAPTTVIYEDNQRPSGVPDRFSGSIDSSSNSASLTISGLKTEDEADYYCQSYDSSNHWVFGGGTKLTVL
notes: ELISA group 2B; also called mAb 2M-10B11
In turn, B4 came in with a Kd in assay [1] below 2.14 nM.
